According to PMC4914081:

What was measured:
[1] = biological target: T1, Cac1C (C-terminal WHD) (budding yeast, UniProt Q12495 520-606); experiment: EMSA
[2] = biological target: Cac1C K553E (budding yeast, UniProt Q12495 520-606, K553E); experiment: EMSA
[3] = biological target: T1, Cac1C (C-terminal WHD); experiment: EMSA; remark: listed apart in the source
[4] = biological target: Cac1C K583E (budding yeast, UniProt Q12495 520-606, K583E); experiment: EMSA
[5] = biological target: Cac1C K577E (budding yeast, UniProt Q12495 520-606, K577E); experiment: EMSA
Chain of Cac1C K577E (Q12495 520-606 K577E): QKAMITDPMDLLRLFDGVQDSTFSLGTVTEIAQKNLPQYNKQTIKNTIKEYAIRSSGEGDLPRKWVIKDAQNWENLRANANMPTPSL

[6] = biological target: T2, Mmp150C (mouse, UniProt Q9QWF0 706-827); experiment: EMSA
T2 sequence: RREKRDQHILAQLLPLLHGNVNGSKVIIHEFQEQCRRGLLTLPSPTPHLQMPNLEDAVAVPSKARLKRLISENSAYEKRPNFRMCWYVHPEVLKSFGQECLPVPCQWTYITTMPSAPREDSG

[7] = biological target: Hsp150C (human, UniProt Q13111 727-854); experiment: EMSA
Chain of Hsp150C (Q13111 727-854): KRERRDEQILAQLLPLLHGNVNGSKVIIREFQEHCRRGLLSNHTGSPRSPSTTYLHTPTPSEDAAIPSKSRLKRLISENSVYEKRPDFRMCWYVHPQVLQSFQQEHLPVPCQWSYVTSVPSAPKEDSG

[8] = biological target: T3, Mmp150C 4KE (mouse, UniProt Q9QWF0 706-827, K768E;R770E;K772E;R773E); experiment: EMSA
T3 sequence: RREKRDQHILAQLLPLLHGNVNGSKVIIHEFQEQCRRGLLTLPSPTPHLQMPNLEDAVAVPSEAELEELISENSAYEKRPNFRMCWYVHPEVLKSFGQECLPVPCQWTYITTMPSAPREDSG

[9] = biological target: GST-Cac2 (budding yeast, UniProt Q04199 1-438); experiment: pull-down
Chain of GST-Cac2 (Q04199 1-438): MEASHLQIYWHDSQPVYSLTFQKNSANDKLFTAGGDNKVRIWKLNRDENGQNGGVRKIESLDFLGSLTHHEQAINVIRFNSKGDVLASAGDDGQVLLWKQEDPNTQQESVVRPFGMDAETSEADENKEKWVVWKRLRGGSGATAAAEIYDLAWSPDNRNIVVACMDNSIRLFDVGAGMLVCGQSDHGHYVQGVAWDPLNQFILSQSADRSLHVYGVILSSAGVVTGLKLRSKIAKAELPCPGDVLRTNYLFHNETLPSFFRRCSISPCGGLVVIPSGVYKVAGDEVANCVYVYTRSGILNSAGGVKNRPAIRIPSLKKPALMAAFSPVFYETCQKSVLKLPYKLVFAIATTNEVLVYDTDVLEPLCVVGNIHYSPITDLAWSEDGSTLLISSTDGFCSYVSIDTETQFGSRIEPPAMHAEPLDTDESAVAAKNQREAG

[10] = biological target: T1, Cac1C (C-terminal WHD); experiment: pull-down
[11] = biological target: Cac1 (in CAF-1);GST-Cac2;Cac3 (budding yeast (Saccharomyces …, UniProt Q12495;Q04199;P13712 91-606;1-438;1-422, ||)); experiment: pull-down
Chain of Cac1 (in CAF-1);GST-Cac2;Cac3 (budding yeast (Q12495 91-606, chain 1 of 3): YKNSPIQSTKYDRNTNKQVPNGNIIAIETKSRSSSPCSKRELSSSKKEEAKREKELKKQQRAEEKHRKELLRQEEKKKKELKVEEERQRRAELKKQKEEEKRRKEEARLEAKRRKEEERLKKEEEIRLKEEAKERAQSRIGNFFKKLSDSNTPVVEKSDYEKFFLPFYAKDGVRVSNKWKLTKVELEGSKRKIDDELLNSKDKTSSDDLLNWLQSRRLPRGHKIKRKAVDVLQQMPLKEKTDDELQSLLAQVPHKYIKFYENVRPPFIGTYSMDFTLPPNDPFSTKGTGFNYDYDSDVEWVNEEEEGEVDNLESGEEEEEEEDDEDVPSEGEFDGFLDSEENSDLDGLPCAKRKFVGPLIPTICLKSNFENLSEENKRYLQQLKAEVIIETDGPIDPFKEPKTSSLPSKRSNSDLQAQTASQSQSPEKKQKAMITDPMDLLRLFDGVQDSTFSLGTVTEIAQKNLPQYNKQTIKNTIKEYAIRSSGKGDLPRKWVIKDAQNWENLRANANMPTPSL
Chain of Cac1 (in CAF-1);GST-Cac2;Cac3 (budding yeast (Q04199 1-438, chain 2 of 3): as the sequence (Q04199 1-438) above
Chain of Cac1 (in CAF-1);GST-Cac2;Cac3 (budding yeast (P13712 whole entry, chain 3 of 3): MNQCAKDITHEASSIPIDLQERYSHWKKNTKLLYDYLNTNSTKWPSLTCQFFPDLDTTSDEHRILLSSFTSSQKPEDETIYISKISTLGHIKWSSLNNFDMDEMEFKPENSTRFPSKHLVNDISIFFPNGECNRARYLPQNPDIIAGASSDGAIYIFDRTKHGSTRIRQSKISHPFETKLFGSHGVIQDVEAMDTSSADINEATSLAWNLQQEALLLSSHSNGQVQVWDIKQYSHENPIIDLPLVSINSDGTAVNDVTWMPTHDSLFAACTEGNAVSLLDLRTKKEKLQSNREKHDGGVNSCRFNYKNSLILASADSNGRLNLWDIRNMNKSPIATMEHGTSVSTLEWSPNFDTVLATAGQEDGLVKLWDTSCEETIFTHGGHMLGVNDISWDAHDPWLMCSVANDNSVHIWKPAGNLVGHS

[12] = biological target: T1, Cac1C (C-terminal WHD); experiment: EMSA; remark: listed apart in the source
[13] = biological target: T1, Cac1C (C-terminal WHD); experiment: EMSA; remark: listed apart in the source

T1 sequence (Q12495 520-606): as the sequence (Q12495 520-606 K577E) above, with E58K counted along it
Chain of Cac1C K553E (Q12495 520-606 K553E): as the sequence (Q12495 520-606 K577E) above, with K34E, E58K counted along it
Chain of Cac1C K583E (Q12495 520-606 K583E): as the sequence (Q12495 520-606 K577E) above, with E58K, K64E counted along it

Binder: CAACAAAACCCCAACCCCAAACCACACC (ssDNA) [ssDNA]
- binding result [1]: binds

B1: 58 bp (dsDNA)
DNA 1: ATACATTTTATGACTGGAAACTTTTTTGTACAACACTCCAATAAACATTTTGATTTTA
DNA 2: TAAAATCAAAATGTTTATTGGAGTGTTGTACAAAAAAGTTTCCAGTCATAAAATGTAT
- binding result [2]: binds
- binding result [3]: binds
- binding result [4]: binds
- binding result [5]: binds
- binding result [6]: binds
- binding result [7]: binds
- binding result [8]: no binding

B2: 58 bp biotinylated (dsDNA)
DNA 1: ATACATTTTATGACTGGAAACTTTTTTGTACAACACTCCAATAAACATTTTGATTTTA
DNA 2: TAAAATCAAAATGTTTATTGGAGTGTTGTACAAAAAAGTTTCCAGTCATAAAATGTAT
modifications: biotin on one strand
- binding result [9]: no binding
- binding result [10]: binds
- binding result [11]: binds

B3: AT-rich (dsDNA)
DNA 1: ATAATCGATATT
DNA 2: AATATCGATTAT
- binding result [12]: binds

B4: GC-rich (dsDNA)
DNA 1: ATCGCCCGCGCA
DNA 2: TGCGCGGGCGAT
- binding result [13]: binds
